Km, Vmax and Vmax/Km data for 1 substance are collected here from paper PMC1257591, “In Vitro Inhibition of Human Hepatic and cDNA-Expressed Sulfotransferase Activity with 3-Hydroxybenzo[a]pyrene by Polychlorobiphenylols” (Environmental Health Perspectives, 2005).

The data set has as its system T1, Oc1ccc2ccc3c4ccccc4cc4ccc1c2c43.
T1 construct: made in house; host or cells: Escherichia coli
Kind of data set: Kinetics of 3-OH-BaP sulfonation by partially purified cDNA-expressed SULT1B1. The class given is biochemical, human. Conditions: other: apparent, 3-OH-BaP as substrate. From the text: The expression of human SULT1A1*1, SULT1A3, SULT1B1, and SULT1E1 in Escherichia coli has been described previously ([Dajani et al. 1998]; [Wang et al. 1998]). We grew E. coli cells containing the respective sulfotransferase genes as described previously ([Falany et al. 1990], [1994]), and prepared 100,000g supernatant fractions for use in inhibition studies and for partial purification of the SULT enzymes. We purchased expressed SULT1A1*2 cytosolic extract from PanVera (Madison, WI) and used it as supplied.
The 100,000g supernatant fractions of SULT1A1*1, SULT1A3, SULT1B1, and SULT1E1 were partially purified by chromatographic methods ([Falany et al. 1990], [1994]). After the last step, a 3′-phosphoadenosine 5′-phosphate (PAP)-agarose affinity column, we dialyzed the fractions eluted with PAP with three changes of buffer to remove PAP before the assay of SULT activity with 3-OH-BaP as substrate. We analyzed active fractions by SDS-PAGE ([Laemmli 1970]) to assess the purity of each SULT enzyme. We stained the gels with Coomassie R-250 reagent and determined the percentage of protein present as each respective SULT enzyme by scanning densitometry.
We determined SULT activity with 3-OH-BaP as substrate by a fluorimetric assay of BaP-3-SO4 product formation, as described previously ([Wang et al. 2004]). […] Duplicate tubes were prepared for each incubation condition. We examined the kinetics of sulfonation in three liver cytosol fractions by systematically varying the concentration of 3-OH-BaP or PAPS. When the variable substrate was 3-OH-BaP, we used 12 concentrations in the range from 0.035 to 2.00 μM, and the concentration of PAPS was kept constant at 10 μM. […]
We determined the kinetic parameters for 3-OH-BaP sulfonation by partially purified preparations of the cDNA-expressed SULT isozymes under incubation conditions similar to those used for liver cytosol. […]
We calculated the enzyme kinetic parameters from studies with variable concentrations of 3-OH-BaP using nonlinear regression analysis and GraphPad 4.0 software (GraphPad Software, San Diego, CA). […]

In the case of SULT1B1 (Homo sapiens), the Km worked out at 2.00 µM, the Vmax was 0.0097 µmol/min/mg and the Vmax/Km worked out at 4900 µL/min/mg.
